# Assay results published in patent US9580508B2, “Bispecific EGFR/c-Met antibodies” (Janssen Biotech, Inc., priority 2012, dated 2017).
# Numbering of substitutions follows the chain as printed.
# B1: P54CR4-31: EGFR-binding FN3 domain, SEQ ID NO: 26 (protein)
# chain: LPAPKNLVVSEVTEDSLRLSWTAPDAAFDSFLIQYQESEKVGEAINLTVPGSERSYDLTGLKPGTEYTVSIYGVLGSYVFEHDVMLPLSAEFTT
# modifications: EGFR binding FN3 domain
# B2: P54CR4-31v2: stabilized EGFR-binding FN3 domain, SEQ ID NO: 28 (protein)
# chain: B1 chain with L17A, N46V, E91I
# modifications: EGFR binding FN3 domain
# B3: P114AR7P92-G8: c-Met-binding FN3 domain, SEQ ID NO: 36 (protein)
# chain: LPAPKNLVVSRVTEDSARLSWTAPDAAFDSFVIRYFEFLGSGEAIVLTVPGSERSYDLTGLKPGTEYVVQILGVKGGYISIPLSAIFTT
# modifications: c-Met binding FN3 domain
# B4: P114AR5P74-A5: c-Met-binding FN3 domain, SEQ ID NO: 32 (protein)
# chain: B3 chain with V32W, F36D, F38V, L39V, G40V, S41G, V68Y, Q70N, Y78S, I81V
# modifications: c-Met binding FN3 domain
# B5: P114AR7P93-G8: c-Met-binding FN3 domain, SEQ ID NO: 39 (protein)
# chain: B3 chain with V32W, G60D, V68G, Q70T, L72N, Y78R, I79V, I81T
# modifications: c-Met binding FN3 domain
# B6: P114AR7P95-H8: c-Met-binding FN3 domain, SEQ ID NO: 49 (protein)
# chain: B3 chain with V32W, L39V, G40S, S41K, Q70N, L72M, Y78S, I81P
# modifications: c-Met binding FN3 domain
# B7: P114AR7P93-H9: c-Met-binding FN3 domain, SEQ ID NO: 40 (protein)
# chain: B3 chain with V32W, L72I, Y78H, I81L
# modifications: c-Met binding FN3 domain
# B8: P114AR7P94-A3: c-Met-binding FN3 domain, SEQ ID NO: 41 (protein)
# chain: B3 chain with V32W, Q70N, L72M, Y78K, I81P
# modifications: c-Met binding FN3 domain
# B9: P114AR7P95-D4: c-Met-binding FN3 domain, SEQ ID NO: 45 (protein)
# chain: B3 chain with V32W
# modifications: c-Met binding FN3 domain
# B10: P114AR7P92-F6: c-Met-binding FN3 domain, SEQ ID NO: 35 (protein)
# chain: B3 chain with V32W, Q70N, Y78G, I79L, I81V
# modifications: c-Met binding FN3 domain
# B11: P114AR7P92-H5: c-Met-binding FN3 domain, SEQ ID NO: 37 (protein)
# chain: B3 chain with V32W, F36L, G40L, S41G, L72M, Y78T, I79V, I81P
# modifications: c-Met binding FN3 domain
# B12: P114AR7P94-E5: c-Met-binding FN3 domain, SEQ ID NO: 42 (protein)
# chain: B3 chain with V32W, V68A, Q70N, L72M, Y78R, I79V, I81V
# modifications: c-Met binding FN3 domain
# B13: P114AR7P95-F10: c-Met-binding FN3 domain, SEQ ID NO: 47 (protein)
# chain: B3 chain with V32W, L39T, G40T, S41A, Q70N, L72M, Y78S, I81P
# modifications: c-Met binding FN3 domain
# B14: P114AR7P95-G7: c-Met-binding FN3 domain, SEQ ID NO: 48 (protein)
# chain: B3 chain with V32W, F38L, G40S, S41T, Q70N, L72M, Y78S, I81P
# modifications: c-Met binding FN3 domain
# B15: P54AR4-83: EGFR-binding FN3 domain, SEQ ID NO: 25 (protein)
# chain: LPAPKNLVVSEVTEDSLRLSWDDPWAFYESFLIQYQESEKVGEAINLTVPGSERSYDLTGLKPGTEYTVSIYGVHNVYKDTNMRGLPLSAEFTT
# modifications: EGFR binding FN3 domain
# B16: P54AR4-37: EGFR-binding FN3 domain, listed with SEQ ID NO: 22 in Table 6 (protein)
# chain: B15 chain with D22T, D23W, W25Y, F27D, Y28L, E29D
# modifications: EGFR binding FN3 domain
# B17: P54AR4-37v2: stabilized EGFR-binding FN3 domain, SEQ ID NO: 29 (protein)
# chain: B15 chain with D22T, D23W, W25Y, F27D, Y28L, E29D
# modifications: EGFR binding FN3 domain
# B18: ECB94: bispecific FN3: P54AR4-83v22-(AP)5-P114AR7P94-A3v22, SEQ ID NO: 61 (protein)
# chain: MLPAPKNLVVSEVTEDSARLSWDDPWAFYESFLIQYQESEKVGEAIVLTVPGSERSYDLTGLKPGTEYTVSIYGVHNVYKDTNIRGLPLSAIFTTAPAPAPAPAPLPAPKNLVVSRVTEDSARLSWTAPDAAFDSFWIRYFEFLGSGEAIVLTVPGSERSYDLTGLKPGTEYVVNILGVKGGKISPPLSAIFTT
# modifications: bispecific EGFR/cMet binding molecule
# B19: ECB95: bispecific FN3: P54AR4-83v22-(AP)5-P114AR9P121-A6v2, SEQ ID NO: 62 (protein)
# chain: B18 chain with L144V, K183S
# modifications: bispecific EGFR/cMet binding molecule
# B20: ECB15: bispecific FN3: P54AR4-83v2-(AP)5-P114AR7P94-A3, SEQ ID NO: 57 (protein)
# chain: B18 chain with I84M, L177M
# modifications: bispecific EGFR/cMet binding molecule
# B21: ECB97: bispecific FN3: P54AR4-83v22-(AP)5-P114AR7P95-C5v2, SEQ ID NO: 64 (protein)
# chain: B18 chain with G178S, K183S
# modifications: bispecific EGFR/cMet binding molecule
# B22: ECB106: bispecific FN3: P54AR4-83v23-(AP)5-P114AR7P94-A3v22, SEQ ID NO: 65 (protein)
# chain: B18 chain with W26H
# modifications: bispecific EGFR/cMet binding molecule
# B23: ECB96: bispecific FN3: P54AR4-83v22-(AP)5-P114AR9P122-A7v2, SEQ ID NO: 63 (protein)
# chain: B18 chain with L144V, G145S, S146K, E148D, K183S
# modifications: bispecific EGFR/cMet binding molecule
# B24: ECB109: bispecific FN3: P54AR4-83v23-(AP)5-P114AR7P95-C5v2, SEQ ID NO: 68 (protein)
# chain: B18 chain with W26H, G178S, K183S
# modifications: bispecific EGFR/cMet binding molecule
# B25: ECB107: bispecific FN3: P54AR4-83v23-(AP)5-P114AR9P121-A6v2, SEQ ID NO: 66 (protein)
# chain: B18 chain with W26H, L144V, K183S
# modifications: bispecific EGFR/cMet binding molecule
# B26: ECB108: bispecific FN3: P54AR4-83v23-(AP)5-P114AR9P122-A7v2, SEQ ID NO: 67 (protein)
# chain: B18 chain with W26H, L144V, G145S, S146K, E148D, K183S
# modifications: bispecific EGFR/cMet binding molecule
# System: not listed separately
# Assay: Differential scanning calorimetry in PBS (thermal stability)
# Assay type: physicochemical
# Conditions: DSC in PBS
# From the text: A subset of the EGFR binding FN3 domains was engineered to increase the conformational stability of each molecule. […] The new mutants, P54AR5-83v2, P54CR431-v2, and P54AR4-37v2 were expressed and purified as described above. Differential scanning calorimetry in PBS was used to assess the stability of each mutant in order to compare it to that of the corresponding parent molecule.
# Thermal Stability of c-Met-binding FN3 Domains Differential Scanning Calorimetry in PBS was Used to Assess the Stability of Each FN3 Domain.
Molecule,Tm (° C.) [°C],"Thermal Stability (Tm, C.) [C.]"
B1,60.9,
B2,78.9,
B3,,90.9
B4,,74.1
B5,,76.8
B6,,83
B7,,88.2
B8,,86.2
B9,,85.3
B10,,76.8
B11,,87
B12,,80
B13,,85.2
B14,,87.2
B15,50.6,
B16,45.9,
B17,64.2,

# System: NCI-H292 cells
# Assay: HGF-induced NCI-H292 cell proliferation
# Assay type: cell-based, human
# Conditions: read-out: H292-HGF Proliferation inhibition in HGF-induced H292 cells (IC50)
# From the text: The proliferation assay was completed using different combinations EGFR and c-Met binding FN3 domains either as a mixture or linked in a bispecific format. […] This confirmed that the avidity effect observed at the level of the receptors (FIG. 4 and FIG. 5) translates into an improvement in inhibiting cell signaling (Table 12) and cell proliferation (Table 13).
# Select bispecific EGFR/c-Met molecules were characterized for their affinity to both EGFR and c-Met, their ability to inhibit EGFR and c-Met autophosphorylation, and their effect on proliferation of HGF cells. Binding affinity of the bispecific EGFR/c-Met molecules to recombinant EGFR and/or c-Met extracellular domain was further evaluated by surface Plasmon resonance methods using a Proteon Instrument (BioRad) according to protocol described in Example 3.
row,Molecule,IC50 [nM]
1,B18,29.6
2,B19,383
3,B20,23
4,B21,31
5,B22,484
6,B23,9480
7,B24,574
8,B25,2640
9,B26,11400
